T1: GST-UPF1CH (human, UniProt Q92900-2 115-272)
T1 construct: human UPF1, N-terminal cysteine-histidine-rich (CH) domain; also called UPF1CH domain; source: E. coli BL21 (DE3) STAR pRARE, purified (Ni-NTA, heparin, SEC)
T1 sequence (looked up): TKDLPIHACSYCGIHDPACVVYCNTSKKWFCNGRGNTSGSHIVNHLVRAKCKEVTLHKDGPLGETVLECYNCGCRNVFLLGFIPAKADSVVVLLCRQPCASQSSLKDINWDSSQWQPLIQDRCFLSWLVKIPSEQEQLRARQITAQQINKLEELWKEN


Columns and labels:
[1] = molecular target: Stau1 dsRBD2-3-4-dd (human); test: SEC-MALS; about 350 µg of each Stau1 construct on Superdex 200 10/300; 20 mM HEPES pH 7.5, 150 mM NaCl, 0.02% NaN3; dimer to monomers
GST-UPF1CH [2] = molecular target: T1, GST-UPF1CH; test: pull-down; GST-tagged bait and prey mixed in equal amounts, 4 °C 16 h, Glutathione Sepharose; 20 mM HEPES pH 7.5, 150 mM NaCl, 10% glycerol, 0.1% NP-40; eluted with 20 mM glutathione, SDS-PAGE and Coomassie; bands quantified with ImageJ; settings: both partners purified
[3] = molecular target: the molecule itself; test: SEC; analytical SEC of full-length Stau1 alone; monomer and dimer peaks
GST-UPF1CH [4] = molecular target: T1, GST-UPF1CH; test: pull-down; as the GST pull-down, with UPF2 added as a third purified protein; settings: both partners purified
[5] = molecular target: GST-UPF1 (CH domain and helicase core) (human) (UniProt Q92900); test: as above

| Molecule | stoichiometry N [1] | fold lower amount bound than UPF2s (GST-UPF1CH [2]) [fold] | stoichiometry N [3] | fold increase of co-precipitated Stau1 on addition of UPF2 (GST-UPF1CH [4]) [fold] | fold increase of co-precipitated Stau1 on addition of UPF2 [5] [fold] |
| --- | --- | --- | --- | --- | --- |
| Stau1 dsRBD2-3-4-dd (domain or fragment) | 2 | – | – | – | – |
| Stau1, full length (Stau1_63, the longer isoform, 577 residues) (natural protein, human, UniProt O95793 1-577, looked up, human Stau1, longer isoform Stau1_63, 577 residues; In rapid equilibrium between monomer and dimer in solution; source: E. coli BL21 (DE3) STAR pRARE, purified (Ni-NTA, heparin, SEC)) MSQVQVQVQNPSAALSGSQILNKNQSLLSQPLMSIPSTTSSLPSENAGRPIQNSALPSASITSTSAAAESITPTVELNALCMKLGKKPMYKPVDPYSRMQSTYNYNMRGGAYPPRYFYPFPVPPLLYQVELSVGGQQFNGKGKTRQAAKHDAAAKALRILQNEPLPERLEVNGRESEEENLNKSEISQVFEIALKRNLPVNFEVARESGPPHMKNFVTKVSVGEFVGEGEGKSKKISKKNAAIAVLEELKKLPPLPAVERVKPRIKKKTKPIVKPQTSPEYGQGINPISRLAQIQQAKKEKEPEYTLLTERGLPRRREFVMQVKVGNHTAEGTGTNKKVAKRNAAENMLEILGFKVPQAQPTKPALKSEEKTPIKKPGDGRKVTFFEPGSGDENGTSNKEDEFRMPYLSHQQLPAGILPMVPEVAQAVGVSQGHHTKDFTRAAPNPAKATVTAMIARELLYGGTSPTAETILKNNISSGHVPHGPLTRPSEQLDYLSRVQGFQVEYKDFPKNNKNEFVSLINCSSQPPLISHGIGKDVESCHDMAALNILKLLSELDQQSTEMPRTGNGPMSVCGRC | – | 3.3 | 2 | 2.3 | 3.3 |
